Positions count from the first letter of the chain named. Numbers in names are those of the source.
B1: β-glucosidase A (BglA) from Bacillus polymyxa, wild type (enzyme)
chain: TIFQFPQDFMWGTATAAYQIEGAYQEDGRGLSIWDTFAHTPGKVFNGDNGNVACDSYHRYEEDIRLMKELGIRTYRFSVSWPRIFPNGDGEVNQEGLDYYHRVVDLLNDNGIEPFCTLYHWDLPQALQDAGGWGNRRTIQAFVQFAETMFREFHGKIQHWLTFNEPWCIAFLSNMLGVHAPGLTNLQTAIDVGHHLLVAHGLSVRRFRELGTSGQIGIAPNVSWAVPYSTSEEDKAACARTISLHSDWFLQPIYQGSYPQFLVDWFAEQGATVPIQDGDMDIIGEPIDMIGINYYSMSVNRFNPEAGFLQSEEINMGLPVTDIGWPVESRGLYEVLHYLQKYGNIDIYITENGACINDEVVNGKVQDDRRISYMQQHLVQVHRTIHDGLHVKGYMAWSLLDNFEWAEGYNMRFGMIHVDFRTQVRTPKESYYWYRNVVSNNWLETRR
notes: β-glucosidase A (BglA, EC 3.2.1.21) from Bacillus polymyxa, family 1 glycosyl hydrolase; Plasmid pBglA; its vector and construct limits are not described; also called wild type enzyme; source: E. coli BL21 Star (DE3), purified (HisTrap, thrombin, HisTrap, gel filtration on Superdex 200)
B2: β-glucosidase A (BglA) from Bacillus polymyxa, N437D mutant (enzyme)
chain: B1 chain with N436D
notes: β-glucosidase A (BglA, EC 3.2.1.21) from Bacillus polymyxa with N437D, made by site-directed mutagenesis of pBglA; Same construct as m1 apart from the mutation; source: E. coli BL21 Star (DE3), purified (HisTrap, thrombin, HisTrap, gel filtration on Superdex 200)
B3: β-glucosidase A (BglA) from Bacillus polymyxa, N437E mutant (enzyme)
chain: B1 chain with N436E
notes: β-glucosidase A (BglA, EC 3.2.1.21) from Bacillus polymyxa with N437E, made by site-directed mutagenesis of pBglA; Same construct as m1 apart from the mutation; source: E. coli BL21 Star (DE3), purified (HisTrap, thrombin, HisTrap, gel filtration on Superdex 200)

Target: the molecule itself
Experiment: SEC; gel filtration during purification (HiLoad 26/60 Superdex 200 prep-grade), 50 mM citrate phosphate buffer, pH 7; data not shown

| Protein | stoichiometry N |
| --- | --- |
| B1 | 8 |
| B2 | 4 |
| B3 | 4 |

Reference: article PMC4231051, “Protein Thermal Stability Enhancement by Designing Salt Bridges: A Combined Computational and Experimental Study” (PLoS ONE, 2014)
